Results published in article PMC7367873, “Dissecting the sequence determinants for dephosphorylation by the catalytic subunits of phosphatases PP1 and PP2A” (Nature Communications, 2020).

B1: RFC1 (protein, UniProt P35251 1-1148, looked up)
Replication factor C subunit 1: MDIRKFFGVIPSGKKLVSETVKKNEKTKSDEETLKAKKGIKEIKVNSSRKEDDFKQKQPSKKKRIIYDSDSESEETLQVKNAKKPPEKLPVSSKPGKISRQDPVTYISETDEEDDFMCKKAASKSKENGRSTNSHLGTSNMKKNEENTKTKNKPLSPIKLTPTSVLDYFGTGSVQRSNKKMVASKRKELSQNTDESGLNDEAIAKQLQLDEDAELERQLHEDEEFARTLAMLDEEPKTKKARKDTEAGETFSSVQANLSKAEKHKYPHKVKTAQVSDERKSYSPRKQSKYESSKESQQHSKSSADKIGEVSSPKASSKLAIMKRKEESSYKEIEPVASKRKENAIKLKGETKTPKKTKSSPAKKESVSPEDSEKKRTNYQAYRSYLNREGPKALGSKEIPKGAENCLEGLIFVITGVLESIERDEAKSLIERYGGKVTGNVSKKTNYLVMGRDSGQSKSDKAAALGTKIIDEDGLLNLIRTMPGKKSKYEIAVETEMKKESKLERTPQKNVQGKRKISPSKKESESKKSRPTSKRDSLAKTIKKETDVFWKSLDFKEQVAEETSGDSKARNLADDSSENKVENLLWVDKYKPTSLKTIIGQQGDQSCANKLLRWLRNWQKSSSEDKKHAAKFGKFSGKDDGSSFKAALLSGPPGVGKTTTASLVCQELGYSYVELNASDTRSKSSLKAIVAESLNNTSIKGFYSNGAASSVSTKHALIMDEVDGMAGNEDRGGIQELIGLIKHTKIPIICMCNDRNHPKIRSLVHYCFDLRFQRPRVEQIKGAMMSIAFKEGLKIPPPAMNEIILGANQDIRQVLHNLSMWCARSKALTYDQAKADSHRAKKDIKMGPFDVARKVFAAGEETAHMSLVDKSDLFFHDYSIAPLFVQENYIHVKPVAAGGDMKKHLMLLSRAADSICDGDLVDSQIRSKQNWSLLPAQAIYASVLPGELMRGYMTQFPTFPSWLGKHSSTGKHDRIVQDLALHMSLRTYSSKRTVNMDYLSLLRDALVQPLTSQGVDGVQDVVALMDTYYLMKEDFENIMEISSWGGKPSPFSKLDPKVKAAFTRAYNKEAHLTPYSLQAIKASRHSTSPSLDSEYNEELNEDDSQSDEKDQDAIETDAMIKKKTKSSKPSKPEKDKEPRKGKGKSSKK
B2: ABCF2 (protein, UniProt Q9UG63 1-623, looked up)
ATP-binding cassette …: MPSDLAKKKAAKKKEAAKARQRPRKGHEENGDVVTEPQVAEKNEANGRETTEVDLLTKELEDFEMKKAAARAVTGVLASHPNSTDVHIINLSLTFHGQELLSDTKLELNSGRRYGLIGLNGIGKSMLLSAIGKREVPIPEHIDIYHLTREMPPSDKTPLHCVMEVDTERAMLEKEAERLAHEDAECEKLMELYERLEELDADKAEMRASRILHGLGFTPAMQRKKLKDFSGGWRMRVALARALFIRPFMLLLDEPTNHLDLDACVWLEEELKTFKRILVLVSHSQDFLNGVCTNIIHMHNKKLKYYTGNYDQYVKTRLELEENQMKRFHWEQDQIAHMKNYIARFGHGSAKLARQAQSKEKTLQKMMASGLTERVVSDKTLSFYFPPCGKIPPPVIMVQNVSFKYTKDGPCIYNNLEFGIDLDTRVALVGPNGAGKSTLLKLLTGELLPTDGMIRKHSHVKIGRYHQHLQEQLDLDLSPLEYMMKCYPEIKEKEEMRKIIGRYGLTGKQQVSPIRNLSDGQKCRVCLAWLAWQNPHMLFLDEPTNHLDIETIDALADAINEFEGGMMLVSHDFRLIQQVAQEIWVCEKQTITKWPGDILAYKEHLKSKLVDEEPQLTKRTHNV
B3: DDOST (protein, UniProt P39656 43-456, looked up)
Dolichyl-diphosphooligosacchar …: SGPRTLVLLDNLNVRETHSLFFRSLKDRGFELTFKTADDPSLSLIKYGEFLYDNLIIFSPSVEDFGGNINVETISAFIDGGGSVLVAASSDIGDPLRELGSECGIEFDEEKTAVIDHHNYDISDLGQHTLIVADTENLLKAPTIVGKSSLNPILFRGVGMVADPDNPLVLDILTGSSTSYSFFPDKPITQYPHAVGKNTLLIAGLQARNNARVIFSGSLDFFSDSFFNSAVQKAAPGSQRYSQTGNYELAVALSRWVFKEEGVLRVGPVSHHRVGETAPPNAYTVTDLVEYSIVIQQLSNGKWVPFDGDDIQLEFVRIDPFVRTFLKKKGGKYSVQFKLPDVYGVFQFKVDYNRLGYTHLYSSTQVSVRPLQHTQYERFIPSAYPYYASAFSMMLGLFIFSIVFLHMKEKEKSD
B4: CAPRIN1 (protein, UniProt Q14444 2-709, looked up)
Caprin-1: PSATSHSGSGSKSSGPPPPSGSSGSEAAAGAGAAAPASQHPATGTGAVQTEAMKQILGVIDKKLRNLEKKKGKLDDYQERMNKGERLNQDQLDAVSKYQEVTNNLEFAKELQRSFMALSQDIQKTIKKTARREQLMREEAEQKRLKTVLELQYVLDKLGDDEVRTDLKQGLNGVPILSEEELSLLDEFYKLVDPERDMSLRLNEQYEHASIHLWDLLEGKEKPVCGTTYKVLKEIVERVFQSNYFDSTHNHQNGLCEEEEAASAPAVEDQVPEAEPEPAEEYTEQSEVESTEYVNRQFMAETQFTSGEKEQVDEWTVETVEVVNSLQQQPQAASPSVPEPHSLTPVAQADPLVRRQRVQDLMAQMQGPYNFIQDSMLDFENQTLDPAIVSAQPMNPTQNMDMPQLVCPPVHSESRLAQPNQVPVQPEATQVPLVSSTSEGYTASQPLYQPSHATEQRPQKEPIDQIQATISLNTDQTTASSSLPAASQPQVFQAGTSKPLHSSGINVNAAPFQSMQTVFNMNAPVPPVNEPETLKQQNQYQASYNQSFSSQPHQVEQTELQQEQLQTVVGTYHGSPDQSHQVTGNHQQPPQQNTGFPRSNQPYYNSRGVSRGGSRGARGLMNGYRGPANGFRGGYDGYRPSFSNTPNSGYTQSQFSAPRDYSGYQRDGYQQNFKRGSGQSGPRGAPRGRGGPPRPNRGMPQMNTQQVN
B5: DHX30 (protein, UniProt Q7L2E3 1-1194, looked up)
ATP-dependent RNA helicase …: MFSLDSFRKDRAQHRQRQCKLPPPRLPPMCVNPTPGGTISRASRDLLKEFPQPKNLLNSVIGRALGISHAKDKLVYVHTNGPKKKKVTLHIKWPKSVEVEGYGSKKIDAERQAAAAACQLFKGWGLLGPRNELFDAAKYRVLADRFGSPADSWWRPEPTMPPTSWRQLNPESIRPGGPGGLSRSLGREEEEDEEEELEEGTIDVTDFLSMTQQDSHAPLRDSRGSSFEMTDDDSAIRALTQFPLPKNLLAKVIQIATSSSTAKNLMQFHTVGTKTKLSTLTLLWPCPMTFVAKGRRKAEAENKAAALACKKLKSLGLVDRNNEPLTHAMYNLASLRELGETQRRPCTIQVPEPILRKIETFLNHYPVESSWIAPELRLQSDDILPLGKDSGPLSDPITGKPYVPLLEAEEVRLSQSLLELWRRRGPVWQEAPQLPVDPHRDTILNAIEQHPVVVISGDTGCGKTTRIPQLLLERYVTEGRGARCNVIITQPRRISAVSVAQRVSHELGPSLRRNVGFQVRLESKPPSRGGALLFCTVGILLRKLQSNPSLEGVSHVIVDEVHERDVNTDFLLILLKGLQRLNPALRLVLMSATGDNERFSRYFGGCPVIKVPGFMYPVKEHYLEDILAKLGKHQYLHRHRHHESEDECALDLDLVTDLVLHIDARGEPGGILCFLPGWQEIKGVQQRLQEALGMHESKYLILPVHSNIPMMDQKAIFQQPPVGVRKIVLATNIAETSITINDIVHVVDSGLHKEERYDLKTKVSCLETVWVSRANVIQRRGRAGRCQSGFAYHLFPRSRLEKMVPFQVPEILRTPLENLVLQAKIHMPEKTAVEFLSKAVDSPNIKAVDEAVILLQEIGVLDQREYLTTLGQRLAHISTDPRLAKAIVLAAIFRCLHPLLVVVSCLTRDPFSSSLQNRAEVDKVKALLSHDSGSDHLAFVRAVAGWEEVLRWQDRSSRENYLEENLLYAPSLRFIHGLIKQFSENIYEAFLVGKPSDCTLASAQCNEYSEEEELVKGVLMAGLYPNLIQVRQGKVTRQGKFKPNSVTYRTKSGNILLHKSTINREATRLRSRWLTYFMAVKSNGSVFVRDSSQVHPLAVLLLTDGDVHIRDDGRRATISLSDSDLLRLEGDSRTVRLLKELRRALGRMVERSLRSELAALPPSVQEEHGQLLALLAELLRGPCGSFDVRKTADD

Key:
[1] = tested on: GFP-14-3-3β and its binding proteins; experiment: GFP-14-3-3β co-IP with LC-MS/MS label-free quantification, untreated versus PP1c-treated; parameters: species or system human; settings: log2 difference; pairwise comparison PP1 vs untreated, label-free quantification, 3 replicates each
GFP-14-3-3β = GFP-14-3-3β co-IP with LC-MS/MS, untreated GFP-14-3-3β versus GFP control (14-3-3 interactome); format: binding, human; settings: log2 difference; pairwise comparison untreated vs GFP, label-free quantification, 3 replicates each

| Molecule | Difference (log2), PP1 vs untreated [1] | Difference (log2), untreated vs GFP (GFP-14-3-3β) |
| --- | --- | --- |
| B1 | 1.349 | 0.4473 |
| B2 | 1.378 | -0.5576 |
| B3 | 1.381 | -0.4067 |
| B4 | 1.323 | -0.3406 |
| B5 | 1.371 | 0.9044 |
